Reference: the MegaScale stability set (Tsuboyama et al. 2023)

B1: EHEE_rd2_1257 (parent)
chain: EEERTFTNEEEARKAKKEAEKRGLRVTVTKDGTTWRVRIG

Variants of: B1
Test: folding stability dG (cDNA display proteolysis); higher = more stable
Conditions: PBS, room temperature

Folding stability dG [kcal/mol]: each site, then its substitutions
A15: F 3.5 | N 0.555 | G -0.185 | R 0.547 | Y 3.31 | K 0.42 | T 1.19 | V 1.72 | L 2.02 | I 1.43 | D 0.155 | S 0.987 | M 1.87 | H 1.67 | Q 0.698 | W 3.04 | E 1.11
E10: C 2.31 | Q 2.03 | K 2.07 | Y 2.21 | W 2.57 | R 2.23 | A 2.16 | N 1.86 | F 2.01 | M 2.02 | P 1.38 | T 1.81 | H 1.96 | L 2.11 | I 1.98 | V 1.86 | S 1.89 | D 2.01 | G 1.81
E11: H 1.32 | Y 0.886 | S 1.46 | G 1.34 | I 0.287 | C 1.56 | P -0.587 | D 2.28 | A 1.8 | T 0.995 | V 0.538 | R 0.608 | Q 1.58 | L 1.31 | K 0.826 | F 0.906 | M 1.55 | W 1.07 | N 1.18
A12: V 1.51 | S 0.218 | L 0.876 | W 0.906 | T 0.316 | M 2.08 | I -0.149 | Y 1.34 | C 2 | F 1.54
E18: A 1.84 | M 1.72 | V 1.3 | H 1.43 | K 1.11 | S 1.4 | T 1.33 | D 1.91 | N 1.48 | R 1.22 | Q 1.64 | L 1.64 | W 2.24 | I 1.48 | G 0.934 | Y 1.59 | F 1.56
K17: Q 2.36 | D 2.44 | A 2.47 | N 2.15 | E 2.7 | M 2.48 | F 2.36 | G 1.78 | T 2.11 | V 2.27 | L 2.45 | I 2.5 | W 2.39 | Y 2.44 | R 2.3 | H 2.24 | S 2.19
K14: R 2.17 | L 2.1 | F 1.94 | M 2.15 | Y 2.02 | G 1.49 | E 2.19 | D 1.86 | T 1.93 | V 1.83 | Q 2.18 | N 2.11 | I 2 | A 2.31 | H 2.01 | W 1.94 | S 1.89
T7: A 1.87 | E 1.94 | C 1.95 | Q 1.83 | I 1.56 | K 1.63 | H 1.86 | S 1.91 | F 2 | P 1.69 | R 1.58 | Y 2.06 | N 1.98 | V 1.7 | G 1.68 | L 1.79 | M 1.89 | W 1.77 | D 2.25
L24: N 0.631 | E 0.879 | M 1.79 | I 1.16 | G 0.057 | F 2.15 | A 0.982 | K 1.18 | H 1.46 | D 0.447
R4: W 3.03 | T 1.61 | Q 2 | S 1.46 | M 2.53 | N 1.14 | Y 2.93 | V 1.96 | P 0.462
E9: L 2.01 | Y 2.73 | Q 1.58 | I 1.96 | P 1.47 | A 1.76 | N 0.702 | T 0.236 | F 2.37 | W 2.9 | V 1.72 | M 1.55 | K 1.58 | S 1.35 | D 0.502 | G 1.42 | H 1.45 | R 1.77
E20: L 1.69 | A 1.2 | T 1.11 | Q 1.67 | Y 1.03 | I 1.63 | M 1.66 | D 0.837 | K 1.14 | F 1.02 | S 0.861 | V 1.39 | C 1.45 | R 1.11 | N 0.952 | H 0.935 | W 1.27 | G 0.5
T5: Y 2.17 | Q 1.6 | S 1.69 | F 2.19 | R 1.52 | W 2.45 | E 1.65 | P 0.253 | G 0.704 | D 1.13 | N 1.29 | M 1.94 | H 1.68 | K 1.17 | I 2.56 | A 1.49 | V 2.47 | L 2.11
A19: E 0.159 | Q 0.398 | F 2.11 | K 0.052 | Y 2.37 | S 0.779 | W 2.02 | H 1.06 | G 1.06 | M 2.11 | L 2.46 | D -0.295 | V 0.703 | T 0.176 | I 1.53 | C 2.03 | N 0.597
G23: A 0.188 | M 0.537 | W 0.38 | R 0.397 | C 1.58 | H 0.993 | L 0.537 | Y 0.68 | D -0.065 | S 0.399 | K 0.384 | F 0.9 | Q 0.383 | N 0.986 | V 0.034 | E -0.609
K21: E 2.25 | A 2.53 | W 1.71 | V 1.82 | N 2.06 | F 1.89 | R 2.19 | H 1.82 | L 2.31 | D 2.25 | M 2.45 | I 1.93 | G 2.11 | T 1.88 | S 2.38 | Y 1.82 | Q 2.17
F6: T -0.137 | W 0.194 | Y 2.19 | V 0.21 | M 0.184 | L 0.227
R13: L 2.96 | I 2.74 | M 3.15 | V 2.26 | W 2.73 | G 1.37 | A 1.93 | D 1.98 | S 1.82 | K 2.05 | F 2.73 | Y 2.92 | Q 2.32 | E 2.22 | H 2.19 | N 2.35 | T 2.12
R22: I 1.59 | F 1.62 | A 1.91 | H 1.72 | L 2.19 | P -0.245 | E 1.23 | K 1.8 | G 1.02 | Q 1.88 | T 1.06 | S 1.44 | C 1.55 | M 2.18 | N 1.72 | Y 1.69 | V 1.45 | W 1.72 | D 1.09
N8: Y 0.987 | Q 1.12 | H 1.34 | K 1.5 | R 1.49 | I 1.39 | G 0.865 | D 1.76 | V 1.43 | A 1.07 | E 1.35 | M 1.18 | L 1.52 | T 2.35 | F 1.09 | S 2.31 | W 0.726
K16: V 3 | G 2.33 | I 2.99 | Q 2.91 | H 1.53 | M 2.66 | N -0.159 | C 2.25 | Y 2.2 | S 1.99 | R 1.75 | F 2.35 | T 1.89 | W 2.37 | E 2.31 | A 3.56 | L 1.95
